Reference: patent US11673916B2, “Neuroprotective peptides and methods of their use” (University of Pittsburgh—Of the Commonwealth System of …, priority 2020, dated 2023)

Molecular target: T1, Kv2.1 surface clusters (Rattus norvegicus, UniProt P15387)
T1 construct: expressed in transfected cells; host or cells: primary rat cortical neurons (E16-17 Sprague-Dawley), Lipofectamine 2000
T1 sequence (P15387 1-857): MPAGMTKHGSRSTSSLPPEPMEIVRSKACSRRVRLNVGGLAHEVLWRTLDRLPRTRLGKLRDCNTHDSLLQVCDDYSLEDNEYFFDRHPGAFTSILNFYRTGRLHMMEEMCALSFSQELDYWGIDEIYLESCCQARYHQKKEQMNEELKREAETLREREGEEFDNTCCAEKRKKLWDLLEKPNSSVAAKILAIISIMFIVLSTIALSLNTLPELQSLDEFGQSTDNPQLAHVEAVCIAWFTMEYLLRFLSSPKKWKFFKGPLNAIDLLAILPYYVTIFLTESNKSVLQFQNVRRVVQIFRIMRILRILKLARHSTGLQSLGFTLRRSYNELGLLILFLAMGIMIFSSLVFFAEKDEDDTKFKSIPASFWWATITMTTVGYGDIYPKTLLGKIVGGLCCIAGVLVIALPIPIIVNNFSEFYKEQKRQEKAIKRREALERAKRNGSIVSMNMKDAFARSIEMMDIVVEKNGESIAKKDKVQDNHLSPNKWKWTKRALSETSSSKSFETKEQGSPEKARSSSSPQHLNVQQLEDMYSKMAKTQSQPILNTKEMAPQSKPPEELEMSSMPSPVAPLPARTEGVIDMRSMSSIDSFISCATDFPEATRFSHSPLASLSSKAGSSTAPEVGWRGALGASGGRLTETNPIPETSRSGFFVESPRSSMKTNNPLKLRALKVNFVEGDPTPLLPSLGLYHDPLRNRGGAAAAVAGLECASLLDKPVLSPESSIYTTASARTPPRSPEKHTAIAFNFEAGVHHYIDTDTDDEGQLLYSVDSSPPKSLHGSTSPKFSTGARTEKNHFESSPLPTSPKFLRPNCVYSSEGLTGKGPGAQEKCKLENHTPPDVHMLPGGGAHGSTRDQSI
Test: Kv2.1 surface cluster density in live cortical neurons co-transfected with Kv2.1-GFP and peptide-expressing plasmids
Assay type: cell-based
Conditions: plasmid-driven expression, 24 h after transfection, mean+/-SEM (FIG. 1C)
Protocol: In vitro experiments utilized primary cortical neuronal cultures prepared from embryonic day 16-17 Sprague-Dawley rats of either sex in a protocol described previously (McCord et al., J Physiol (Lond). 592: 3511-3521, 2014). Timed-pregnant rats (Charles River Laboratories, Wilmington, Mass.) were sacrificed by CO2 inhalation. Embryonic cortices were dissociated with trypsin (0.6 mg/mL) and cells plated in sterile 6-well plates on poly-L-ornithine-coated glass coverslips at a density of 670,000 cells per well. Cytosine arabinoside (1-2 μM) was utilized to inhibit non-neuronal proliferation on day 14 in vitro (DIV); cultures were utilized at 21-25 DIV.
Transfections were performed with Lipofectamine 2000 (L2K; Invitrogen, Carlsbad, Calif.). Cortical neuronal cultures on glass coverslips were placed into wells containing 500 μL of Dulbecco's minimum essential medium with 2% HyClone bovine serum (D2C; Thermo Fisher Scientific, Waltham, Mass.). A mixture of 1.5 μg of total cDNA and 2 μL of L2K was prepared in 100 μL of Opti-MEM I (Life Technologies Corp., Grand Island, N.Y.) for each well and added. […]
To analyze Kv2.1 distribution in live primary cortical neurons, cells were transfected with both a tdTomato construct and a GFP-tagged Kv2.1 construct (O'Connell, et al., J Neurosci. 26: 9609-9618, 2006) and imaged on a Nikon A1+ confocal microscope (Nikon, Tokyo, Japan). […] For live images of transfected neurons, object count parameters were customized to define a Kv2.1 cluster as an area of high intensity GFP fluorescence (compared to background), measuring 0.05 μm^2 or larger (Schulien et al., J Physiol (Lond). 594: 2647-2659, 2016). Kv2.1 cluster density was calculated by normalizing the number of Kv2.1 clusters counted to the somatic area of each neuron (#Kv2.1 clusters/μm^2). […] In each neuron analyzed, two populations on Kv2.1-GFP expression were first noted—(a) highly localized signals of clustered Kv2.1 channels, and (b) diffuse background staining that represents freely-dispersed, conducting Kv2.1 channels on the plasma membrane. […]

Row | Substance | mean Kv2.1 surface cluster density
1 | Kv2.2 CT: Kv2.2 channel C-terminal peptide expressed from plasmid pCMV-Kv2.2CT (EVIVDMKSTSSIDSFTSCATDFTETE) | 0.07±0.01 #Kv2.1 clusters/μm^2 of neuronal soma
2 | MKSTSDFSSIST [Sc-1, plasmid expressed scrambled control of DP-1 (pCMV-Sc-1)] | 0.14±0.03 #Kv2.1 clusters/μm^2 of neuronal soma
3 | MKSTSSIDSFTS [DP-1, plasmid expressed expanded declustering peptide (pCMV-DP-1)] | 0.04±0.01 #Kv2.1 clusters/μm^2 of neuronal soma
